{
  "source": "patent US20260193370A1",
  "about": "(SUZHOU SUNCADIA BIOPHARMACEUTICALS, published 2026)",
  "binders": {"B1": {"name": "Tanezumab (antibody, human IgG2, kappa, V domains shown)", "VH": "QVQLQESGPGLVKPSETLSLTCTVSGFSLIGYDLNWIRQPPGKGLEWIGIIWGDGTTDYNSAVKSRVTISKDTSKNQFSLKLSSVTAADTAVYYCARGGYWYATSYYFDYWGQGTLVTVSS", "VL": "DIQMTQSPSSLSASVGDRVTITCRASQSISNNLNWYQQKPGKAPKLLIYYTSRFHSGVPSRFSGSGSGTDFTFTISSLQPEDIATYYCQQEHTLPYTFGQGTKLEIKR"}},
  "key": {"[1]": {"target": "T1, human NGF protein (Sino biological, 11050-HNAC) (human, UniProt P01138 122-241)", "T1 sequence (P01138 122-241 limits assumed)": "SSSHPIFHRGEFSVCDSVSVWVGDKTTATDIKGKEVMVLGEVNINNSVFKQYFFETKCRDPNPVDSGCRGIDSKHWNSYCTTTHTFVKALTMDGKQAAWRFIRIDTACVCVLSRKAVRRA", "assay": "cell-based or functional assay"}, "[2]": {"target": "T1, human NGF protein (Sino biological, …)", "assay": "cell-based or functional assay", "remark": "listed apart in the source"}},
  "data": [
    {"binder": "B1", "values": [
      {"measurement": "TF-1 cell proliferation-inhibiting activity, fold relative to bispecific antibody 1", "setting": "[1]", "value": "~4.2", "unit": "fold"},
      {"measurement": "TF-1 cell proliferation-inhibiting activity, IC50 (TF-1 cells with human NGF, Cell-titer Glo)", "setting": "[2]", "value": 0.759, "unit": "nM"}
    ]}
  ]
}
